Test results taken from patent publication US20220259328A1 (Kyowa Kirin, published 2022).

Columns and labels:
monkey CD40-GST = target: T1, monkey CD40-GST (monkey, UniProt P25942 21-193 (human entry)); assay: phage ELISA on immobilized monkey CD40-GST, anti-M13-HRP detection
T1 construct: also called monkey CD40-GST protein; not shown: GST region of the N5 vector
T1 chain: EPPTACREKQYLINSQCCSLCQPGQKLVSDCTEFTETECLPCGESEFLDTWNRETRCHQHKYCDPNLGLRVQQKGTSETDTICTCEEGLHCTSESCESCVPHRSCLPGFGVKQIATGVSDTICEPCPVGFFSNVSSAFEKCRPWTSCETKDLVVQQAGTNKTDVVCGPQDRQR
Method: (§1) In the ELISA, MAXISORP (manufactured by NUNC, Inc.) in which the human or monkey CD40-GST in Example 1 was immobilized on each well and a portion to which the human or monkey CD40-GST is not bound was blocked using SuperBlock Blockig Buffer (manufactured by Thermo Fisher. Inc.) was used. To each well, each phage clone was added and reacted at room temperature for 30 minutes, and thereafter, each well was washed 3 times with PBS-T.

human CD40-GST = target: T2, human CD40-GST (human, UniProt P25942 21-193); assay: phage ELISA on immobilized human CD40-GST, anti-M13-HRP detection
T2 construct: also called human CD40-GST protein; not shown: GST region of the N5 vector
Method: as §1

B1: R1090S55A (monoclonal phage clone displaying scFv) (scFv, V domains shown)
VH: EVQLVQSGAEVKKPGESLKISCKGSGYSFIIYWIGWVRQMPGKGLEWMGIIYPNDADTRYSPSFQGQVTISADKSISTAYLQWSSLKASDTAMYYCVRLGTRDWFDPWGQGTLVTVSS
VL: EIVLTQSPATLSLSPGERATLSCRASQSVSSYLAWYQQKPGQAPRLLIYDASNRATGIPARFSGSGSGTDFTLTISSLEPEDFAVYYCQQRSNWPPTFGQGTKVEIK
notes: also called anti-CD40 antibody R1090S55A
Monkey CD40-GST
  binding result: binds
Human CD40-GST
  binding result: binds
